The record followed here is patent US20250289897A1, “LEPTIN RECEPTOR AGONISTIC ANTIBODY AS MONO OR COMBO THERAPIES TO TREAT OBESITY” (ELI LILLY AND COMPANY, priority 2024, published 2025).

The target of assay [1] is neonatal Fc receptor (FcRn) on FcRn Affinity Column Gen2 (Roche, Cat #09430857001) (UniProt P55899). Briefly: FcRn-HPLC (Roche FcRn Affinity Column Gen2), pH gradient 5.5 to 8.8 over 90 minutes.
Assay [2] deals with human FcγRIIA_131H (CD32a) extracellular domain (human) (UniProt P12318). Briefly: SPR at 25 C (Biacore T200), antibody captured on Protein A chip, FcγR ECD as analyte, steady state; average of 3, SD 0.01. In general terms: Surface plasmon resonance follows binding to a sensor surface in real time, without labels.
Sequence of human FcγRIIA_131H (CD32a) extracellular domain (human) (P12318 34-217): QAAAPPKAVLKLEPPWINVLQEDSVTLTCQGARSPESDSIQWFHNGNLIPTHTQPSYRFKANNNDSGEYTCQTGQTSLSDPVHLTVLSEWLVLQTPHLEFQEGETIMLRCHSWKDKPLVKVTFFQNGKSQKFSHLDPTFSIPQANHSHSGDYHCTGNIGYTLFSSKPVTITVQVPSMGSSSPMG
Assay [3] concerns the target human FcγRIIA_131R (CD32a) extracellular domain (human) (UniProt P12318). Described as above.
For assay [4], the target named is human FcγRI (CD64) extracellular domain (human) (UniProt P12314). Briefly: SPR at 25 C (Biacore T200), antibody captured on Protein A chip, FcγR ECD as analyte; average of 3, SD 1.3.
Sequence of human FcγRI (CD64) extracellular domain (human) (P12314 16-292): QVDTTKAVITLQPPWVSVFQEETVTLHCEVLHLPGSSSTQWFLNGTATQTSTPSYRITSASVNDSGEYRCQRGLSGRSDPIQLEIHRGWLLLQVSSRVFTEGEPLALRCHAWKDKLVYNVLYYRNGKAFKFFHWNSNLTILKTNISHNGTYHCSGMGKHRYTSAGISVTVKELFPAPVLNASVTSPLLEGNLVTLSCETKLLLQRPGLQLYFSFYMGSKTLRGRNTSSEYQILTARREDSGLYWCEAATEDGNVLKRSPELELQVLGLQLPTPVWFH
In assay [5] the target is human FcγRIIIA_158F (CD16a) extracellular domain (human) (UniProt P08637). The assay is described as follows: SPR at 25 C (Biacore T200), antibody captured on Protein A chip, FcγR ECD as analyte, steady state; average of 3, SD 0.02.
Sequence of human FcγRIIIA_158F (CD16a) extracellular domain (human) (P08637 17-208): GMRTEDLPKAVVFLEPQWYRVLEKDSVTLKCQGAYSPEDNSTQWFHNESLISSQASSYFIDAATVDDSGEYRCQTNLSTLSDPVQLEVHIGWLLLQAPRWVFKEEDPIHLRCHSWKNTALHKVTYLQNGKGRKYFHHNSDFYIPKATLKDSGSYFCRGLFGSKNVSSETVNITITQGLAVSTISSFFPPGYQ
Assay [6] concerns the target cynomolgus monkey LEPR, full length, on HEK293-STAT3Luc-cmLepR2 cells (Macaca fascicularis). Briefly: flow cytometry on live HEK293-STAT3Luc-cmLepR2 cells, AF647 anti-human IgG; average of 4 runs, SD 0, R^2 0.60.
The target of assay [7] is human LEPR, full length, on HEK293-STAT3Luc-hLepR1 cells (Homo sapiens) (UniProt P48357). The assay is described as follows: cell-based or functional assay.
Sequence of human LEPR, full length, on HEK293-STAT3Luc-hLepR1 cells (Homo sapiens) (P48357 22-1165 limits assumed): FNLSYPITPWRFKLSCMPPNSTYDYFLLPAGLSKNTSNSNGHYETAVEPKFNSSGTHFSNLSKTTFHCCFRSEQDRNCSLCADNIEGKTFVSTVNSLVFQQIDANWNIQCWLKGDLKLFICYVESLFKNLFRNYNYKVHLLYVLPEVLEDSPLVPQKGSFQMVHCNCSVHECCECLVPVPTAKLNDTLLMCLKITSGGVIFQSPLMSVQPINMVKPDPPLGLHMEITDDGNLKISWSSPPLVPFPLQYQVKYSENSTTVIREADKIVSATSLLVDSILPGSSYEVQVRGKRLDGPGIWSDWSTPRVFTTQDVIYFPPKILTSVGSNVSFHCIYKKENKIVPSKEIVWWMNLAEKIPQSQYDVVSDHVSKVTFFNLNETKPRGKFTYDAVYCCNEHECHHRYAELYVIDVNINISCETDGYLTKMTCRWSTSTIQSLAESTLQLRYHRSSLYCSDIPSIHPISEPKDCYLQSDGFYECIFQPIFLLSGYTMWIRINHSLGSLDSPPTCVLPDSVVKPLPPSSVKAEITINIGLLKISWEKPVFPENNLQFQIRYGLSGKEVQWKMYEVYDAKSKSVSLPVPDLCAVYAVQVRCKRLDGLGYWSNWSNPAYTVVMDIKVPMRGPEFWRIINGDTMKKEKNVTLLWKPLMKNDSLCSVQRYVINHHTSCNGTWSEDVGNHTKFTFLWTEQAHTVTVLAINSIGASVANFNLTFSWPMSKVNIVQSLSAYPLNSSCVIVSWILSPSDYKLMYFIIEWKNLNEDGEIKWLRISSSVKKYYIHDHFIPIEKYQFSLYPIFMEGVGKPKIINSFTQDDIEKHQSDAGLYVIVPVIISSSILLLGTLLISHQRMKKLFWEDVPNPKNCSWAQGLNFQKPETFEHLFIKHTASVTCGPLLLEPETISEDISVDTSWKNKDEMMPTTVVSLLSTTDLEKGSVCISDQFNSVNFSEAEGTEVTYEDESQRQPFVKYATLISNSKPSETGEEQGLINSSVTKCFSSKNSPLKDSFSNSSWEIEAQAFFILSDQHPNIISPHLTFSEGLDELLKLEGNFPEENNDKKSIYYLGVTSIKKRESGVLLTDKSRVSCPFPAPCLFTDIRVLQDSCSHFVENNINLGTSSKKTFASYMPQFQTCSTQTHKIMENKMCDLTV
Assay [8] has the same target. Briefly: flow cytometry on live HEK293-STAT3Luc-hLepR1 cells, AF647 anti-human IgG; average of 4 runs. Background: Flow cytometry measures light scatter and fluorescence of single cells or particles in a stream.
Assay [9] has as its target cynomolgus monkey LEPR, full length, on HEK293-STAT3Luc-cmLepR2 cells (Macaca fascicularis). The assay is described as follows: flow cytometry on live HEK293-STAT3Luc-cmLepR2 cells, AF647 anti-human IgG; average of 4 runs.
In assay [10] the target is human LEPR, full length, on HEK293-STAT3Luc-hLepR1 cells (Homo sapiens) (UniProt P48357). Briefly: flow cytometry on live HEK293-STAT3Luc-hLepR1 cells, AF647 anti-human IgG; average of 4 runs, SD 331, R^2 0.50.
For assay [11], the target named is neonatal Fc receptor (FcRn) on FcRn Affinity Column Gen2 (Roche, Cat #09430857001) (UniProt P55899). Briefly: FcRn-HPLC (Roche FcRn Affinity Column Gen2), peak width at 50% peak height.
For assay [12], the target named is Mutant human LEPR-A409E, on HEK293 STAT3-Luciferase reporter cells (human) (UniProt P48357). Briefly: cell-based or functional assay.
Sequence of Mutant human LEPR-A409E, on HEK293 STAT3-Luciferase reporter cells (human) (P48357 22-1165 A409E limits assumed): as the sequence (P48357 22-1165 limits assumed) above, with A388E counted along it

Sequence of neonatal Fc receptor (FcRn) on FcRn Affinity Column Gen2 (Roche, Cat #09430857001) (P55899 24-297 limits assumed, chain 1 of 2): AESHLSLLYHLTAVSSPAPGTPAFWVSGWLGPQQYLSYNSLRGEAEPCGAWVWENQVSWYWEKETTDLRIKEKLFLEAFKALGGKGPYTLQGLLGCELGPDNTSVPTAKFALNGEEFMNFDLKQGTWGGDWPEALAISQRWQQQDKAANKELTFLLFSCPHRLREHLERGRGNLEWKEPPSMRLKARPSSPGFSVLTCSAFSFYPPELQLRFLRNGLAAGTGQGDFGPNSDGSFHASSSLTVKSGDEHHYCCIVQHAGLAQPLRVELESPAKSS
Sequence of neonatal Fc receptor (FcRn) on FcRn Affinity Column Gen2 (Roche, Cat #09430857001) (P61769 21-119 limits assumed, chain 2 of 2, further chain): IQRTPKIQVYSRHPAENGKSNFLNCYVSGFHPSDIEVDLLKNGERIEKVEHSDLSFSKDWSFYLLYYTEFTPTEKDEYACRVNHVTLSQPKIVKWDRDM
Sequence of human FcγRIIA_131R (CD32a) extracellular domain (human) (P12318 34-217 H167R): as the sequence (P12318 34-217) above, with H134R counted along it

In [1], Briakinumab (antibody) had a Retention Time of 88.9 min.

For the substance IgG1 positive control (antibody), the Kd – broadly, the constant that tells how readily two partners part at equilibrium – in assay [2] amounted to 520 nM; in assay [3], 530 nM; in assay [4] it was 0.0619 nM; in assay [5] it was 860 nM.

As for IgG Isotype control (antibody), the EC50 (as a rule, the concentration that produces a half-maximal response) in assay [6] came to 727 nM; in [10] it was 409 nM. Besides, in assay [7], the Maximum RLU, pERK1/2 AlphaLISA (baseline 29762.5) was found to be 27300 RLU. Also, the Bottom (gMFI) was determined as 148 gMFI in assay [8] and 69 gMFI in assay [9]. For the same substance, the Top (gMFI) in [8] stood at 293 gMFI; in [9] it was 131 gMFI.

Ustekinumab (antibody): in [11], the Peak Width was determined as 1.9 min. This substance also returned a Retention Time in assay [1] of 69.4 min.

On to “recombinant human leptin protein (SEQ ID NO:27) (from UniProt P41159 22-167) (ligand)”, for which the Maximum RLU, pERK1/2 AlphaLISA (baseline 29762.5) in assay [7] is 138000 RLU. This substance also came in with a Top (RLU), STAT3-luciferase reporter (projected by the fitting software) in [12] of 259000 RLU.
